The record followed here is paper PMC5551578 (The Journal of Experimental Medicine, 2017).

One assay addresses tetanus toxoid (Clostridium tetani, production strain …, UniProt P04958).
The target in assay [1] is T1, H1N1 HA (A/California/04/2009) (Influenza A virus A/California/04/2009 …, UniProt C3W5S1, strain).
T1 construct: source: bought: Sino Biological
In words: ELISA. On the technique in general: An ELISA detects its analyte on a solid surface through an enzyme-linked reagent.

Assay [2] addresses T2, H2N2 HA (A/Japan/305/1957) (Influenza A virus A/Japan/305/1957 …, UniProt P03451, strain).
T2 construct: source: bought: Sino Biological
In words: ELISA. Particulars: one partner purified.

Assay [3] concerns the target T3, H3N2 HA (A/Perth/16/2009) (Influenza A virus A/Perth/16/2009 (H3N2), UniProt C6KNH7, strain).
T3 construct: also called H3N2 hemagglutinin; source: bought: Sino Biological
In words: ELISA. Particulars: one partner purified.

For assay [4], the target named is T4, H5N1 HA (A/Vietnam/1194/2004) (Influenza A virus A/Vietnam/1194/2004 …, UniProt A5A5M5, strain).
T4 construct: also called H5N1 hemagglutinin; source: bought: Sino Biological
In words: ELISA. The following applies: one partner purified.

The target in assay [5] is T4, H5N1 HA (A/Vietnam/1194/2004).

Read-outs that look alike come from different tables or passages of the source.

B1: TT-Ab8 (antibody, V domains shown)
VH: EVQLVESGGGLVQPGGSLRLSCAASGFTFSYYDMNWVRQAPGKGLEWLSYISGSGGVIYYADSVKGRFTISRDNAKNSLFLQMNSLRAEDTAVYYCARDPSPGRLGFFDYWGQGTLVTVSS
VL: EIVMTQSPAILSVSPGERATLSCRASQRVSSNLAWYQQKPGQAPRLLIYGASTRATGIPARFSGSGSGTEFTLTISSLQSEDCAIYYCQQYNNWPRTFGQGTKVEIK
On to B1, for which the binding result in the assay with tetanus toxoid is given as “binds”.

B2: TT-Ab11 (antibody, V domains shown)
VH: QVQLQESGPGLVKPSQTLSLTCNVSDGSISSDGYYWSWLRQHPGKGPEWIGYIHHSGHPYYNPSLKSRVTMSIDTSKNQFALKLSSVTAVDTAMYYCARVRGTGYYPGTLDLWGQGTLVTVSS
VL: EIVLTQSPGTLSLSPGERATLSCRASQSVSSSYFAWYQQIPGQAPRLLIYGTSNRATGIPDRFSGSGSGKDFTLTISRLEPEDFAVYYCQQFGSSPLTFGGGTKVEIK
For B2, the binding result with tetanus toxoid is recorded as “binds”.

B3: H5-Ab2 (antibody, V domains shown)
VH: EVQLVQSGAEVKKPGSSVKVSCRSSGGPFRSNAISWVRQAPGQGLEWMGGIIAVFGTVEYAQKFQGRVTITADDSRSTVYMELRSLRSDDTAFYYCASAHGYHNYGSRGYFVSWGQGTLVTVSS
VL: DIVMTQSPGTLSLSPGERATLSCRASQSVSSNYLAWYQQKLGQPPRLLIYGASSRATGIPDRFSGSGSGTDFTLTISRLEPEDYAVYYCQQYGSSPHTFGQGTKVEIK
For the molecule B3, the binding result in assay [1] is given as “binds”.

B4: H5-Ab4 (antibody, V domains shown)
VH: EVQLVESGGGAVQPGRSLRLSCAVSGFTFSSYGMNWVRQAPGKGLEWVAVISYDGSNTYYADSVKGRFTISRDDSKNTLFLQMNSLRADDTAVYYCAKDFQLRLLRYFDWLSSPFDHWGQGTLVTVSS
VL: DIQLTQSPGTLSLSPGERATLSCRASQSIRSNFLAWYQQTPGQGPRLLIYGASSRATGIPDRFSGSGSGTDFTLTISGLEPEDFAVYYCQQYASSPQTFGQGTKVEIK
With B4, the binding result in assay [1] is given as “binds”.

B5: TT-Ab13 (antibody, V domains shown)
VH: EVQLVESGAEVKKPGESLRISCKGSGYSFTTYWIGWVRQMPGKGLEWIGIIYAGDSDTRYSPSFQGQVTMPVDKSITTAYLQWSSLKASDTAMYYCARQGDPSSYLTSGFEFWGQGTLVTVSS
VL: DIQMTQSPSTLSASVGDGVTITCRASQSISRWLAWYQQKPGKAPKLLIYQASRLESGVPSRFSGSGSGTEFTLSISSLQPDDFATYYCHQYNSYSQTFGQGTKVEIK
As to B5, the binding result in the assay with tetanus toxoid was “binds”.

B6: H5-Ab6 (antibody, V domains shown)
VH: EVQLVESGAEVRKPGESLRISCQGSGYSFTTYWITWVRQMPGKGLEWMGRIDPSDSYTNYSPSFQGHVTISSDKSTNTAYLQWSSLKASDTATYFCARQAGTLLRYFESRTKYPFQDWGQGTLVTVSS
VL: EIVLTQSPGTLSLSPGERATLSCRASQSVSGGYLAWYQQRPGQAPRLLISGASTRATGIPDRFSGSGSGTDFTLTISGLEPEDFAVYYCQQYGDSPAYTFGQGTKVEIK
Regarding B6, the binding result in assay [1] (one partner purified), in assay [2], in assay [3] and in assay [4] was “binds” in each case.

B7: H5-Ab3 (antibody, V domains shown)
VH: EVQLVESGGGLVKPGGSLRLSCAASGFTFSTYSMNWVRHAPGKGLEWVSSISSGSNYIYYADSVKGRFTISRDNAKNSLYLQMNNLRAEDTAVYHCARDRGESSYYWFDPWGQGTLVTVSS
VL: QSALTQPASVSGSPGQSITISCTGTSSDVGAYDYVSWYRQHPGEAPKLLIYDVARRPSGVSFRFSGSKSGNAASLTISGLQAEDEADYFCSSYAGTTIWVFGGGTKLTVL
On to B7, for which, in assay [5], the binding result was “binds”.
